pEC50: −log10 of the molar value.
Molecular target: human fibrinogen (human) (UniProt P02671)
Assay: ELISA

pEC50	Substance
7.20	recombinant gain-of-function (GOF) A1(R1450E)A2A3 mutant of VWF (domain or fragment)
7.06	recombinant wild-type A1A2A3 (WT) domains protein of VWF (domain or fragment)

From PMC11232922
